# Source: PMC3213119, “Towards a Structural Comprehension of Bacterial Type VI Secretion Systems: Characterization of the TssJ-TssM Complex of an Escherichia coli Pathovar” (PLoS Pathogens, 2011)
# What was measured:
# [1] = molecular target: T1, TssJ (enteroaggregative E. coli Sci1 T6SS), residues 2-155 of the processed lipoprotein, fusion and tag … (enteroaggregative Escherichia coli …); test: SPR; Biacore X100; Trx-TssM-ekto covalently coupled to a CM5 chip (3000 RU), TssJ injected (40-0.312 µM); 10 mM Tris pH 8, 150 mM NaCl, 0.005% Tween; Kd from equilibrium levels, 1:1 model; conditions: both partners purified
# T1 construct: TssJ outer membrane lipoprotein of the sci1 cluster, enteroaggregative Escherichia coli strain 17-2; residues 2-155 of the processed lipoprotein = residues 25-178 of the full-length protein; a Gly left at position 1 may stem from the TEV site (surmised); also called native TssJ; SciN; not shown: thioredoxin, N-terminal, cleaved; His6, N-terminal, cleaved
# [2] = molecular target: T2, TssJ N-terminal thioredoxine fusion (enteroaggregative Escherichia coli …); test: SPR; Biacore X100; Trx-TssJ covalently coupled to a CM5 chip (600 RU), TssM construct injected (Trx-TssM-ekto at 10-0.312 µM); 10 mM Tris pH 8, 150 mM NaCl, 0.005% Tween; Kd from equilibrium levels, 1:1 model; conditions: both partners purified
# T2 construct: TssJ of enteroaggregative Escherichia coli strain 17-2; residues 2-155 of the processed lipoprotein = residues 25-178 of the full-length protein; pETG-20A construct: hexahistidine tagged thioredoxin, TEV site, TssJ; used uncleaved on the CM5 chip; also called Trx-TssJ; source: E. coli T7 Iq pLysS, purified; not shown: thioredoxin, N-terminal, kept; His6, N-terminal, kept
binder,measurement,setting,value
TssM-ekto N-terminal thioredoxine fusion (domain or fragment) DYGSLTAAGLGQEWYGFGQTVFVRPMEQAWQQVLTPAAESLNARWRTAVVDGWNNAFSGRYPFKNVSSDASLPLLAKYLNTDTGRIARFLQNNLSGVLHREGSRWVPDTINTRGLTFNPAFLKAINTLSEIADVAFTTGNAGLHFELRPGTAAGVMQTTLITDNQKLIYVNQMPVWKRFTWPADTEAPGASLSWVSTQAGTRQYADLPGSWGLIRLLEMARRKAAPGVASGWSLSWQAQDGRMLNYTLRTEAGEGPLVLLKLRNFVLPETVFELSGTSAFTGNDEDAGDTVEETD,Kd,[1],4 ± 0.5 µM
same,Kd,[2],2100 nM
